# Measurements: the supplement of paper PMC7877785
# ± gives the uncertainty stated by the source.
# Experiment: self-splicing fitness, log relative to wild type (ln ratio); higher = more splicing; Tetrahymena group I intron in knt gene, E. coli kanamycin selection, DiMSum; sequences stand for … in CUCUCU…GGAGGGAAAAGUUAUCAGGCAUGCACCUGGUAGCUAGUCUUUAAACCAAUAGAUUGCAUCGGUUUAAAAGGCAAGACCGUCAAAUUGCGGGAAAGGGGUCAACAGCCGUUCAGUACCAAGUCUCAGGGGAAACUUUGAGAUGGCCUUGCAAAGGGUAUGGUAAUAAGCUGACGGACAUGGUCCUAACCACGCAGCCAAGUCCUAAGUCAACAGAUCUUCUGUUGAUAUGGAUGCAGUUCACAGACUAAAUGUCGGUCGGGGAAGAUGUAUUCUUCUCAUAAGAUAUAGUCGGACCUCUCCUUAAUGGGAGCUAGCGGAUGAAGUGAUGCAACACUGGAGCCGCUGGGAACUAAUUUGUAUGCGAAAGUAUAUUGAUUAGUUUUGGAGUACUCGUGGUCG
# Method in brief: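 Colonies from six replicate transformations of E. coli BL21(DE3) were pooled and amplicon-sequenced on an Illumina HiSeq 2500. The library placed an intron with all eight P1ex-region nucleotides randomised inside the knt kanamycin-resistance gene on pET-22b(+), and cells grew overnight at 37°C or 30°C on LB agar with or without 25 μg/mL kanamycin (plus 100 μg/mL carbenicillin, 50 μM IPTG, 0.2% rhamnose). Fitness is the DiMSum error-weighted combination of wild-type-normalised replicate fold changes, kanamycin versus none.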
Sequence,self-splicing fitness (ln) (30 °C),self-splicing fitness (ln) (37 °C)
UCUAAGCAAUAUUACGUCUG,-1.72 ± 0.16,-1.18 ± 0.19
UCCCAGCAAUAUUACGUCUA,-2.5 ± 0.21,-2.12 ± 0.22
GACUAGCAAUAUUACGCCUC,-0.374 ± 0.14,-1.76 ± 0.16
AUAUAGCAAUAUUACGCAUC,-2.63 ± 0.22,-1.15 ± 0.26
AUCGAGCAAUAUUACGUUAG,-3.73 ± 0.29,-0.583 ± 0.21
AAGCAGCAAUAUUACGCGCC,-1.33 ± 0.11,-1.24 ± 0.15
GCCAAGCAAUAUUACGAGAA,-2.69 ± 0.4,-0.69 ± 0.35
UGCUAGCAAUAUUACGCAAC,-3.07 ± 0.28,-1.98 ± 0.2
UUUUAGCAAUAUUACGGAUA,-1.07 ± 0.33,-1.21 ± 0.4
AGAAAGCAAUAUUACGUAUC,-3.62 ± 0.3,-2.34 ± 0.24
GAACAGCAAUAUUACGCUGG,-1.98 ± 0.28,-1.3 ± 0.2
AUACAGCAAUAUUACGUUCA,-0.878 ± 0.07,-0.304 ± 0.071
UAUCAGCAAUAUUACGGUCA,-0.435 ± 0.057,0.0755 ± 0.071
UUGCAGCAAUAUUACGUUAG,-1.22 ± 0.053,-0.899 ± 0.085
UUCAAGCAAUAUUACGGGCG,-0.977 ± 0.077,-0.629 ± 0.1
UUUCAGCAAUAUUACGGCGG,-1.72 ± 0.15,-0.833 ± 0.18
GAGCAGCAAUAUUACGUUUG,-2.84 ± 0.11,-1.31 ± 0.11
AACUAGCAAUAUUACGACCU,-0.168 ± 0.083,0.541 ± 0.11
UGAGAGCAAUAUUACGUCAG,–,-3.02 ± 0.31

Sequence,self-splicing fitness (ln) (30 °C),self-splicing fitness (ln) (37 °C)
UUAAAGCAAUAUUACGGCAC,-1.19 ± 0.1,-0.195 ± 0.13
AGAUAGCAAUAUUACGUUCG,-0.335 ± 0.1,0.123 ± 0.14
GGAAAGCAAUAUUACGAAAU,-1.52 ± 0.3,-1 ± 0.41
UGGGAGCAAUAUUACGAGUC,–,-1.83 ± 0.47
CUUUAGCAAUAUUACGCCUA,-3.11 ± 0.3,-1.73 ± 0.3
AUAGAGCAAUAUUACGCCCA,-1.09 ± 0.29,-1.03 ± 0.48
GAUGAGCAAUAUUACGCGCA,-1.91 ± 0.21,-1.58 ± 0.19
ACUCAGCAAUAUUACGAUGU,-1.35 ± 0.064,-0.811 ± 0.074
GACUAGCAAUAUUACGAUGG,-3.49 ± 0.13,-2.24 ± 0.12
GGCAAGCAAUAUUACGCCAU,-2.4 ± 0.39,-1.39 ± 0.29
GCGCAGCAAUAUUACGAGCG,-2.39 ± 0.15,-2.26 ± 0.24
UAAAAGCAAUAUUACGUGAU,-2.46 ± 0.11,-2.04 ± 0.16
AUGAAGCAAUAUUACGCUUA,-0.65 ± 0.061,-0.151 ± 0.075
UGAGAGCAAUAUUACGUACG,-2.03 ± 0.13,-1.59 ± 0.22
CGUAAGCAAUAUUACGAUCG,-1.03 ± 0.11,-0.0852 ± 0.13
UUUCAGCAAUAUUACGAAGA,-0.653 ± 0.24,-0.0649 ± 0.25
GGGAAGCAAUAUUACGUUUG,-2.72 ± 0.22,-1.74 ± 0.21
UUUAAGCAAUAUUACGUUCA,-1.08 ± 0.11,-0.403 ± 0.12
AUUUAGCAAUAUUACGUCCA,-0.944 ± 0.15,-0.558 ± 0.27
